In patent US20130330324A1 (Novartis, published 2013):

Assays:
[1] = target: T1, Human HER3, endogenous, on human cancer cell lines (human, UniProt P21860 20-1342); assay: cell-based or functional assay
[2] = target: T2, Hu HER3 (CD33-[Human HER3, residues 20-640]-TAG) (human, UniProt P21860 20-640); assay: solution equilibrium titration (SET), IgG
T2 construct: N-terminal CD33 leader is a secretion signal and is left out; also called hu HER3-Tag; HER3-Tag; not shown: C-terminal TAG (e.g. FLAG TAG)

[3] = target: T3, Cyno HER3 (CD33-[Cyno HER3, residues 20-643]-TAG) (cynomolgus, UniProt G7PIG5 20-643); assay: solution equilibrium titration (SET), IgG
T3 construct: range 20-643; CD33 leader left out as signal; also called cy HER3-Tag; not shown: C-terminal TAG (e.g. FLAG TAG)

[4] = target: T4, Mu HER3 (CD33-[Murine HER3, residues 20-643]-TAG) (mouse, UniProt Q61526 20-643); assay: solution equilibrium titration (SET), IgG
T4 construct: range 20-643; CD33 leader left out as signal; also called mu HER3-Tag; not shown: C-terminal TAG (e.g. FLAG TAG)

[5] = target: T5, Rat HER3 (CD33-[Rat HER3, residues 20-643]-TAG) (rat, UniProt Q62799 20-643); assay: solution equilibrium titration (SET), IgG
T5 construct: range 20-643; CD33 leader left out as signal; also called ra HER3-Tag; not shown: C-terminal TAG (e.g. FLAG TAG)

[6] = target: T1, Human HER3, endogenous, on human cancer …; assay: FACS titration on SK-Br-3 cells
[7] = target: T1, Human HER3, endogenous, on human cancer …; assay: cell-based or functional assay; remark: listed apart in the source
[8] = target: T1, Human HER3, endogenous, on human cancer …; assay: cell-based or functional assay; remark: listed apart in the source

| Binder | BT-474 pAkt (S473) % inhibition [1] [%] | SK-Br-3 pAkt (S473) % inhibition [1] [%] | SK-Br-3 pAkt (S473) IC50 [1] [pM] | Kd [2] [pM] | Kd [3] [pM] | Kd [4] [pM] | Kd [5] [pM] | EC50 [6] [pM] | BT-474 proliferation % inhibition at 10 µg/ml IgG [7] [%] | MCF7 (neuregulin stimulated) proliferation % inhibition at 10 µg/ml IgG [7] [%] | SK-Br-3 proliferation % inhibition at 10 µg/ml IgG [7] [%] | MCF7 pHER3 % inhibition [8] [%] | MCF7 pHER3 IC50 [8] [pM] | SK-Br-3 pHER3 % inhibition [8] [%] | SK-Br-3 pHER3 IC50 [8] [pM] | MCF7 pAkt (S473) IC50 [1] [pM] |
| --- | --- | --- | --- | --- | --- | --- | --- | --- | --- | --- | --- | --- | --- | --- | --- | --- |
| MOR09823 (antibody, human IgG1, kappa, V domains shown, tested as IgG) VH: QVQLVESGGGLVQPGGSLRLSCAASGFTFSSYAMSWVRQAPGKGLEWVSVTGAVGRTYYPDSVKGRFTISRDNSKNTLYLQMNSLRAEDTAVYYCARWGDEGFDIWGQGTLVTVSS VL: DIQMTQSPSSLSASVGDRVTITCRASQGISNWLAWYQQKPGKAPKLLIYGASSLQSGVPSRFSGSGSGTDFTLTISSLQPEDFAVYYCQQYSSFPTTFGQGTKVEIKR | 57 | 92 | 55 | 9 | 4 | 2 | 11 | 630 | 39.8 | 82 | 39 | 89 | 181 | 59 | 56 | – |
| MOR09825 (antibody, human IgG1, kappa, V domains shown, tested as IgG) VH: QVQLVESGGGLVQPGGSLRLSCAASGFTFSSYAMSWVRQAPGKGLEWVSAINSQGKSTYYADSVKGRFTISRDNSKNTLYLQMNSLRAEDTAVYYCARWGDEGFDIWGQGTLVTVSS VL: DIQMTQSPSSLSASVGDRVTITCRASQGISNWLAWYQQKPGKAPKLLIYGASSLQSGVPSRFSGSGSGTDFTLTISSLQPEDFAVYYCQQYSSFPTTFGQGTKVEIKR | 69 | 91 | 156 | 25 | 56 | 24 | 96 | 839 | 37.2 | 63 | 41 | 80 | 399 | 66 | 169 | 294 |
| MOR10703 A50V_N52G (antibody, human IgG1, kappa, V domains shown, Variant of MOR10703; IgG1/kappa) VH: EVQLLESGGGLVQPGGSLRLSCAASGFTFSSYAMSWVRQAPGKGLEWVSVIGSQGKSTYYADSVKGRFTISRDNSKNTLYLQMNSLRAEDTAVYYCARWGDEGFDIWGQGTLVTVSS VL: DIQMTQSPSSLSASVGDRVTITCRASQGISNWLAWYQQKPGKAPKLLIYGASSLQSGVPSRFSGSGSGTDFTLTISSLQPEDFATYYCQQYSSFPTTFGQGTKVEIKR | – | – | – | 22 | – | – | – | – | – | – | – | – | – | – | – | – |
| MOR12610 (antibody, human IgG1, kappa, V domains shown, tested as IgG) VH: QVQLVESGGGLVQPGGSLRLSCAASGFTFSSYAMSWVRQAPGKGLEWVSGTGPYGGTYYPDSVKGRFTISRDNSKNTLYLQMNSLRAEDTAVYYCARWGDEGFDIWGQGTLVTVSS VL: DIQMTQSPSSLSASVGDRVTITCRASQGISNWLAWYQQKPGKAPKLLIYGASSLQSGVPSRFSGSGSGTDFTLTISSLQPEDFAVYYCQQYSSFPTTFGQGTKVEIKR | – | – | – | 37 | – | – | – | – | – | – | – | 84 | 126 | 75 | 192 | – |
| MOR10703 N52S (antibody, human IgG1, kappa, V domains shown, Variant of MOR10703; IgG1/kappa) VH: EVQLLESGGGLVQPGGSLRLSCAASGFTFSSYAMSWVRQAPGKGLEWVSAISSQGKSTYYADSVKGRFTISRDNSKNTLYLQMNSLRAEDTAVYYCARWGDEGFDIWGQGTLVTVSS VL: DIQMTQSPSSLSASVGDRVTITCRASQGISNWLAWYQQKPGKAPKLLIYGASSLQSGVPSRFSGSGSGTDFTLTISSLQPEDFATYYCQQYSSFPTTFGQGTKVEIKR | – | – | – | 57 | – | – | – | – | – | – | – | – | – | – | – | – |
| MOR10701 R55G (antibody, human IgG1, kappa, V domains shown, Variant of MOR10701; IgG1/kappa) VH: EVQLLESGGGLVQPGGSLRLSCAASGFTFSSYAMSWVRQAPGKGLEWVSVTGAVGGSTYYPDSVKGRFTISRDNSKNTLYLQMNSLRAEDTAVYYCARWGDEGFDIWGQGTLVTVSS VL: DIQMTQSPSSLSASVGDRVTITCRASQGISNWLAWYQQKPGKAPKLLIYGASSLQSGVPSRFSGSGSGTDFTLTISSLQPEDFATYYCQQYSSFPTTFGQGTKVEIKR | – | – | – | 18 | – | – | – | – | – | – | – | – | – | – | – | – |
| MOR10703 A50V_N52S (antibody, human IgG1, kappa, V domains shown, Variant of MOR10703; IgG1/kappa) VH: EVQLLESGGGLVQPGGSLRLSCAASGFTFSSYAMSWVRQAPGKGLEWVSVISSQGKSTYYADSVKGRFTISRDNSKNTLYLQMNSLRAEDTAVYYCARWGDEGFDIWGQGTLVTVSS VL: DIQMTQSPSSLSASVGDRVTITCRASQGISNWLAWYQQKPGKAPKLLIYGASSLQSGVPSRFSGSGSGTDFTLTISSLQPEDFATYYCQQYSSFPTTFGQGTKVEIKR | – | – | – | 16 | – | – | – | – | – | – | – | – | – | – | – | – |
| MOR09974 (antibody, human IgG1, kappa, V domains shown, tested as IgG) VH: QVQLVESGGGLVQPGGSLRLSCAASGFTFSSYAMSWVRQAPGKGLEWVSVINPSGNFTNYADSVKGRFTISRDNSKNTLYLQMNSLRAEDTAVYYCARWGDEGFDIWGQGTLVTVSS VL: DIQMTQSPSSLSASVGDRVTITCRASQGISNWLAWYQQKPGKAPKLLIYGASSLQSGVPSRFSGSGSGTDFTLTISSLQPEDFAVYYCQQYSSFPTTFGQGTKVEIKR | – | 85 | 814 | 350 | 200 | 120 | – | – | – | 20 | 35 | 69 | 3070 | 67 | 1930 | – |
| MOR10703 N52G (antibody, human IgG1, kappa, V domains shown, Variant of MOR10703; IgG1/kappa) VH: EVQLLESGGGLVQPGGSLRLSCAASGFTFSSYAMSWVRQAPGKGLEWVSAIGSQGKSTYYADSVKGRFTISRDNSKNTLYLQMNSLRAEDTAVYYCARWGDEGFDIWGQGTLVTVSS VL: DIQMTQSPSSLSASVGDRVTITCRASQGISNWLAWYQQKPGKAPKLLIYGASSLQSGVPSRFSGSGSGTDFTLTISSLQPEDFATYYCQQYSSFPTTFGQGTKVEIKR | – | – | – | 60 | – | – | – | – | – | – | – | – | – | – | – | – |

Further binders by falling Kd [2], results first:

| BT-474 pAkt (S473) % inhibition [1] [%] | SK-Br-3 pAkt (S473) % inhibition [1] [%] | SK-Br-3 pAkt (S473) IC50 [1] [pM] | Kd [2] [pM] | Kd [3] [pM] | Kd [4] [pM] | Kd [5] [pM] | EC50 [6] [pM] | BT-474 proliferation % inhibition at 10 µg/ml IgG [7] [%] | MCF7 (neuregulin stimulated) proliferation % inhibition at 10 µg/ml IgG [7] [%] | SK-Br-3 proliferation % inhibition at 10 µg/ml IgG [7] [%] | MCF7 pHER3 % inhibition [8] [%] | MCF7 pHER3 IC50 [8] [pM] | SK-Br-3 pHER3 % inhibition [8] [%] | SK-Br-3 pHER3 IC50 [8] [pM] | MCF7 pAkt (S473) IC50 [1] [pM] | Binder |
| --- | --- | --- | --- | --- | --- | --- | --- | --- | --- | --- | --- | --- | --- | --- | --- | --- |
| – | – | – | 11 | – | – | – | – | – | – | – | – | – | – | – | – | MOR10701 R55K (antibody, human IgG1, kappa, V domains shown, Variant of MOR10701; IgG1/kappa) VH: EVQLLESGGGLVQPGGSLRLSCAASGFTFSSYAMSWVRQAPGKGLEWVSVTGAVGKSTYYPDSVKGRFTISRDNSKNTLYLQMNSLRAEDTAVYYCARWGDEGFDIWGQGTLVTVSS VL: DIQMTQSPSSLSASVGDRVTITCRASQGISNWLAWYQQKPGKAPKLLIYGASSLQSGVPSRFSGSGSGTDFTLTISSLQPEDFATYYCQQYSSFPTTFGQGTKVEIKR |
| – | – | – | 10 | – | – | – | – | – | – | – | 86 | 5 | 71 | 241 | – | MOR12609 (antibody, human IgG1, kappa, V domains shown, tested as IgG) VH: QVQLVESGGGLVQPGGSLRLSCAASGFTFSSYAMSWVRQAPGKGLEWVSVINGLGYTTFYADSVKGRFTISRDNSKNTLYLQMNSLRAEDTAVYYCARWGDEGFDIWGQGTLVTVSS VL: DIQMTQSPSSLSASVGDRVTITCRASQGISNWLAWYQQKPGKAPKLLIYGASSLQSGVPSRFSGSGSGTDFTLTISSLQPEDFAVYYCQQYSSFPTTFGQGTKVEIKR |
| 59 | – | – | 4 | 4 | 6 | 10 | – | 43.6 | – | – | – | – | 74 | 370 | – | MOR10701 (antibody, human IgG1, kappa, V domains shown, tested as IgG) VH: EVQLLESGGGLVQPGGSLRLSCAASGFTFSSYAMSWVRQAPGKGLEWVSVTGAVGRSTYYPDSVKGRFTISRDNSKNTLYLQMNSLRAEDTAVYYCARWGDEGFDIWGQGTLVTVSS VL: DIQMTQSPSSLSASVGDRVTITCRASQGISNWLAWYQQKPGKAPKLLIYGASSLQSGVPSRFSGSGSGTDFTLTISSLQPEDFATYYCQQYSSFPTTFGQGTKVEIKR |
| 55 | – | – | 3 | 3 | 5 | 6 | – | 43.8 | – | – | – | – | – | – | – | MOR10702 (antibody, human IgG1, kappa, V domains shown, tested as IgG) VH: EVQLLESGGGLVQPGGSLRLSCAASGFTFSSYAMSWVRQAPGKGLEWVSVISAWGHVKYYADSVKGRFTISRDNSKNTLYLQMNSLRAEDTAVYYCARWGDEGFDIWGQGTLVTVSS VL: DIQMTQSPSSLSASVGDRVTITCRASQGISNWLAWYQQKPGKAPKLLIYGASSLQSGVPSRFSGSGSGTDFTLTISSLQPEDFATYYCQQYSSFPTTFGQGTKVEIKR |
| 46 | 93 | 62 | 3 | 3 | 2 | 7 | 324 | 36.8 | 82 | 33 | 91 | 103 | 64 | 110 | – | MOR09824 (antibody, human IgG1, kappa, V domains shown, tested as IgG) VH: QVQLVESGGGLVQPGGSLRLSCAASGFTFSSYAMSWVRQAPGKGLEWVSVISAWGHVKYYADSVKGRFTISRDNSKNTLYLQMNSLRAEDTAVYYCARWGDEGFDIWGQGTLVTVSS VL: DIQMTQSPSSLSASVGDRVTITCRASQGISNWLAWYQQKPGKAPKLLIYGASSLQSGVPSRFSGSGSGTDFTLTISSLQPEDFAVYYCQQYSSFPTTFGQGTKVEIKR |
